Results from article PMC4942345 (Organic & biomolecular chemistry, 2016).
Primed or numbered codes have the meaning given here. Where no end group is shown, it is not given here. [ ]: non-standard residue; d: D form. The star is where a group is joined. 4‑CBS″ = 4-carboxybenzylsulfonamide on the N-terminus, O=C(O)c1ccc(CS(=O)(=O)*)cc1; 4‑CBS = 4-carboxybenzylsulfonamide, O=C(O)c1ccc(CS(=O)(=O)*)cc1

What was measured:
[1] = target: human carbonic anhydrase II (human, UniProt P00918 1-260); experiment: SPR
[2] = target: human carbonic anhydrase I (human, UniProt P00915 1-261); experiment: SPR
Sequence of human carbonic anhydrase I (P00915 whole entry): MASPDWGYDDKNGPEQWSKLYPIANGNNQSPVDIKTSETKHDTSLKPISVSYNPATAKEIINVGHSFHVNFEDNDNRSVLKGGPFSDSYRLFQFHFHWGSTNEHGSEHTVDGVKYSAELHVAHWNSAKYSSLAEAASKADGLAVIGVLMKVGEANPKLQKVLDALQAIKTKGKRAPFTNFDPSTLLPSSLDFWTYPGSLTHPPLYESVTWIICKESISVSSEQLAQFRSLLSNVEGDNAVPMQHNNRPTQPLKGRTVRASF

| Binder | Kd [1] | Kd [2] |
| --- | --- | --- |
| {4‑CBS″}-[dD][dV][dE][dY][dE]-NH2 [4-CBS-dveye] | 97 nM | 121 nM |
| {4‑CBS″}-[dD][dL][dE][dE][dY]-NH2 [4-CBS-dleey] | 88 nM | 116 nM |
| {4‑CBS″}-[dD][dV][dD][dD][dL]-NH2 [4-CBS-dvddl] | 156 nM | 137 nM |
| {4‑CBS″}-[dD][dV][dD][dD][dY]-NH2 [4-CBS-dvddy] | 82 nM | 102 nM |
| {4‑CBS}-[dD][dL][dD][dD][dW] [4-CBS-dlddw] | 22 nM | 25 nM |
| {4‑CBS″}-[dD][dA][dD][dV][dL]-NH2 [4-CBS-dadvl] | 185 nM | 130 nM |

Further binders by falling Kd [1], results first:

| Kd [1] | Kd [2] | Binder |
| --- | --- | --- |
| 82 nM | 83 nM | {4‑CBS}-[dD][dV][dD][dV][dL] [4-CBS-dvdvl] |
| 82 nM | 151 nM | {4‑CBS″}-[dD][dV][dE][dV][dL]-NH2 [4-CBS-dvevl] |
| 63 nM | 55 nM | {4‑CBS″}-[dD][dV][dD][dE][dY]-NH2 [4-CBS-dvdey] |
| 59 nM | 81 nM | {4‑CBS}-LKEYD [4-CBS-LKEYD] |
